Data taken from the Human Domainome abundance scans (Beltran et al. 2025).
± gives the uncertainty stated by the source.

B1: Receptor-interacting serine/threonine-protein kinase 2, residues 438 to 518; numbered along this chain, O43353 (parent)
chain: QWIQSKREDIVNQMTEACLNQSLDALLSRDLIMKEDYELVSTKPTRTSKVRQLLDTTDIQGEEFAKVIVQKLKDNKQMGLQ

Variants of: B1
Test: abundance fitness (aPCA) (normalised: wild type 0, dead -1); higher = more abundant; growth selection in yeast, the domain comes from the species named
Details: Homo sapiens

Variant	abundance fitness
QWIQSKREDIVNQMTEACLNQSLDALLSMDLIMKEDYELVSTKPTRTSKVRQLLDTTDIQGEEFAKVIVQKLKDNKQMGLQ	-0.076 ± 0.1
QWIQSKREDIVNQMTEACLNQSLDALLSYDLIMKEDYELVSTKPTRTSKVRQLLDTTDIQGEEFAKVIVQKLKDNKQMGLQ	-0.321 ± 0.14
QWIQSKREDIVNQMTEACLNQSLDALLSCDLIMKEDYELVSTKPTRTSKVRQLLDTTDIQGEEFAKVIVQKLKDNKQMGLQ	-0.403 ± 0.22
QWIQSKREDIVNQMTEACLNQSLDALLSNDLIMKEDYELVSTKPTRTSKVRQLLDTTDIQGEEFAKVIVQKLKDNKQMGLQ	-0.044 ± 0.21
QWIQSKREDIVNQMTEACLNQSLDALLSPDLIMKEDYELVSTKPTRTSKVRQLLDTTDIQGEEFAKVIVQKLKDNKQMGLQ	-0.433 ± 0.079
QWIQSKREDIVNQMTEACLNQSLDALLSGDLIMKEDYELVSTKPTRTSKVRQLLDTTDIQGEEFAKVIVQKLKDNKQMGLQ	-0.238 ± 0.062
QWIQSKREDIVNQMTEACLNQSLDALLSEDLIMKEDYELVSTKPTRTSKVRQLLDTTDIQGEEFAKVIVQKLKDNKQMGLQ	-0.152 ± 0.12
QWIQSKREDIVNQMTEACLNQSLDALLSKDLIMKEDYELVSTKPTRTSKVRQLLDTTDIQGEEFAKVIVQKLKDNKQMGLQ	0.002 ± 0.17
QWIQSKREDIVNQMTEACLNQSLDALLSIDLIMKEDYELVSTKPTRTSKVRQLLDTTDIQGEEFAKVIVQKLKDNKQMGLQ	-0.88 ± 0.22
QWIQSKREDIVNQMTEACLNQSLDALLSTDLIMKEDYELVSTKPTRTSKVRQLLDTTDIQGEEFAKVIVQKLKDNKQMGLQ	-0.438 ± 0.11
QWIQSKREDIVNQMTEACLNQSLDALLSLDLIMKEDYELVSTKPTRTSKVRQLLDTTDIQGEEFAKVIVQKLKDNKQMGLQ	0.01 ± 0.07
QWIQSKREDIVNQMTEACLNQSLDALLSFDLIMKEDYELVSTKPTRTSKVRQLLDTTDIQGEEFAKVIVQKLKDNKQMGLQ	0.192 ± 0.27
QWIQSKREDIVNQMTEACLNQSLDALLSQDLIMKEDYELVSTKPTRTSKVRQLLDTTDIQGEEFAKVIVQKLKDNKQMGLQ	-0.059 ± 0.091
QWIQSKREDIVNQMTEACLNQSLDALLSWDLIMKEDYELVSTKPTRTSKVRQLLDTTDIQGEEFAKVIVQKLKDNKQMGLQ	-0.575 ± 0.16
QWIQSKREDIVNQMTEACLNQSLDALLSVDLIMKEDYELVSTKPTRTSKVRQLLDTTDIQGEEFAKVIVQKLKDNKQMGLQ	-0.66 ± 0.14
QWIQSKREDIVNQMTEACLNQSLDALLSHDLIMKEDYELVSTKPTRTSKVRQLLDTTDIQGEEFAKVIVQKLKDNKQMGLQ	-0.345 ± 0.17
QWIQSKREDIVNQMTEACLNQSLDALLSSDLIMKEDYELVSTKPTRTSKVRQLLDTTDIQGEEFAKVIVQKLKDNKQMGLQ	-0.297 ± 0.07

Variant	abundance fitness
QWIQSKREDIVNQMTEACLNQSLDALLSRYLIMKEDYELVSTKPTRTSKVRQLLDTTDIQGEEFAKVIVQKLKDNKQMGLQ	-0.84 ± 0.21
QWIQSKREDIVNQMTEACLNQSLDALLSRSLIMKEDYELVSTKPTRTSKVRQLLDTTDIQGEEFAKVIVQKLKDNKQMGLQ	-0.166 ± 0.087
QWIQSKREDIVNQMTEACLNQSLDALLSRALIMKEDYELVSTKPTRTSKVRQLLDTTDIQGEEFAKVIVQKLKDNKQMGLQ	-0.106 ± 0.072
QWIQSKREDIVNQMTEACLNQSLDALLSRRLIMKEDYELVSTKPTRTSKVRQLLDTTDIQGEEFAKVIVQKLKDNKQMGLQ	-0.036 ± 0.049
QWIQSKREDIVNQMTEACLNQSLDALLSRELIMKEDYELVSTKPTRTSKVRQLLDTTDIQGEEFAKVIVQKLKDNKQMGLQ	-0.03 ± 0.089
QWIQSKREDIVNQMTEACLNQSLDALLSRNLIMKEDYELVSTKPTRTSKVRQLLDTTDIQGEEFAKVIVQKLKDNKQMGLQ	-0.401 ± 0.18
QWIQSKREDIVNQMTEACLNQSLDALLSRVLIMKEDYELVSTKPTRTSKVRQLLDTTDIQGEEFAKVIVQKLKDNKQMGLQ	-0.657 ± 0.12
QWIQSKREDIVNQMTEACLNQSLDALLSRCLIMKEDYELVSTKPTRTSKVRQLLDTTDIQGEEFAKVIVQKLKDNKQMGLQ	-0.332 ± 0.15
QWIQSKREDIVNQMTEACLNQSLDALLSRMLIMKEDYELVSTKPTRTSKVRQLLDTTDIQGEEFAKVIVQKLKDNKQMGLQ	-0.814 ± 0.16
QWIQSKREDIVNQMTEACLNQSLDALLSRQLIMKEDYELVSTKPTRTSKVRQLLDTTDIQGEEFAKVIVQKLKDNKQMGLQ	-0.073 ± 0.077
QWIQSKREDIVNQMTEACLNQSLDALLSRKLIMKEDYELVSTKPTRTSKVRQLLDTTDIQGEEFAKVIVQKLKDNKQMGLQ	0.06 ± 0.11
QWIQSKREDIVNQMTEACLNQSLDALLSRLLIMKEDYELVSTKPTRTSKVRQLLDTTDIQGEEFAKVIVQKLKDNKQMGLQ	-0.615 ± 0.081
QWIQSKREDIVNQMTEACLNQSLDALLSRGLIMKEDYELVSTKPTRTSKVRQLLDTTDIQGEEFAKVIVQKLKDNKQMGLQ	0.122 ± 0.055
QWIQSKREDIVNQMTEACLNQSLDALLSRHLIMKEDYELVSTKPTRTSKVRQLLDTTDIQGEEFAKVIVQKLKDNKQMGLQ	0.045 ± 0.11
QWIQSKREDIVNQMTEACLNQSLDALLSRWLIMKEDYELVSTKPTRTSKVRQLLDTTDIQGEEFAKVIVQKLKDNKQMGLQ	-1.12 ± 0.24
QWIQSKREDIVNQMTEACLNQSLDALLSRPLIMKEDYELVSTKPTRTSKVRQLLDTTDIQGEEFAKVIVQKLKDNKQMGLQ	-1.08 ± 0.24
QWIQSKREDIVNQMTEACLNQSLDALLSRDLEMKEDYELVSTKPTRTSKVRQLLDTTDIQGEEFAKVIVQKLKDNKQMGLQ	-0.731 ± 0.2
